Results on one substance are retold here after article doi:10.1101/2022.04.29.490036.

The assay concerns the target S. lophii 70 S ribosome (Spraguea lophii (endogenous in spores)). Kind of assay: cryo-EM structure.

The term stoichiometry N denotes the number of molecules, sites or subunits per partner or assembly. As to S. lophii 70 S ribosome (complex), the percent of particles in the monomeric class is 1.6% and the stoichiometry N came to 2.
